# Data: paper PMC11257539
# Target: full-length human VARP with a C-terminal 10xHis tag (human) (UniProt Q96NW4)
# Test: BLI
# Chain of full-length human VARP with a C-terminal 10xHis tag (human) (Q96NW4 whole entry): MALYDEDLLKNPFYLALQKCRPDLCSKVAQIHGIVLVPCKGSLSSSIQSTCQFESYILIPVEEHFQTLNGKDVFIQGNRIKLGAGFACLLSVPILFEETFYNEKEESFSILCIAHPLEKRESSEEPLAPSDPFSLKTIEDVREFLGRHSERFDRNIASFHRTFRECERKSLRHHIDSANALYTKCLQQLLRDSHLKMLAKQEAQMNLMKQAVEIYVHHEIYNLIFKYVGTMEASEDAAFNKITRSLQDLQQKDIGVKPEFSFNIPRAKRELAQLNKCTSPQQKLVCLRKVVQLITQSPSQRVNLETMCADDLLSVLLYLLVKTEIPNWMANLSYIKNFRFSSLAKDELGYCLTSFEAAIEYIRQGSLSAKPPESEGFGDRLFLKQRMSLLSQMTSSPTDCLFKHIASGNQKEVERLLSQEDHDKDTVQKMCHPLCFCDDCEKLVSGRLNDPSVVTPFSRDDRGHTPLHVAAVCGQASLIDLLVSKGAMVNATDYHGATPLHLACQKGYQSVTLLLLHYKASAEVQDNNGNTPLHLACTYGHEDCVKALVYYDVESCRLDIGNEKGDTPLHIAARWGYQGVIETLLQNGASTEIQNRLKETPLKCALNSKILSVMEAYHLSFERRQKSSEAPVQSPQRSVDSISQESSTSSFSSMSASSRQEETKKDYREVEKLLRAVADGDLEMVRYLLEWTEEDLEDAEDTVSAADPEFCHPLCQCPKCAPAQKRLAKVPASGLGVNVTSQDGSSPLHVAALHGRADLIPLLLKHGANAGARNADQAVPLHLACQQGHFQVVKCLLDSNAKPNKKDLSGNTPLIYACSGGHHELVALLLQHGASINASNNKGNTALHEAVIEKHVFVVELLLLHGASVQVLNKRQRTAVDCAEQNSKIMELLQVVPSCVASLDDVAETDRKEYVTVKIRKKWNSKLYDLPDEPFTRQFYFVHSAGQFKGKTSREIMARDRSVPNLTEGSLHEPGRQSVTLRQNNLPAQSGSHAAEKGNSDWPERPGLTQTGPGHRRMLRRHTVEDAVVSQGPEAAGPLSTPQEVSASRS
substance,measurement,value
Retromer heterotrimer (VPS26/VPS35/VPS29 subunits) (from UniProt O75436;Q96QK1;Q9UBQ0) (complex),ka1,5040 M⁻¹ s⁻¹
same,ka2,0.0535 M⁻¹ s⁻¹
same,kdis1,0.000363 s⁻¹
same,kdis2,0.00891 s⁻¹
